Source: article PMC9563463, “PARP1-MGMT complex underpins pathway crosstalk in O^6-methylguanine repair” (Journal of Hematology & Oncology, 2022)

Target: T1, full-length PARP1, purified recombinant (UniProt P09874 1-1014)
T1 construct: PARP1, full length; also called purified PARP1; source: purified recombinant
Assay: MST; Monolith NT.115, 17% LED power, medium MST power, MST-on time of 10 s; full-length proteins
Conditions: both partners purified

T1 sequence (P09874 whole entry): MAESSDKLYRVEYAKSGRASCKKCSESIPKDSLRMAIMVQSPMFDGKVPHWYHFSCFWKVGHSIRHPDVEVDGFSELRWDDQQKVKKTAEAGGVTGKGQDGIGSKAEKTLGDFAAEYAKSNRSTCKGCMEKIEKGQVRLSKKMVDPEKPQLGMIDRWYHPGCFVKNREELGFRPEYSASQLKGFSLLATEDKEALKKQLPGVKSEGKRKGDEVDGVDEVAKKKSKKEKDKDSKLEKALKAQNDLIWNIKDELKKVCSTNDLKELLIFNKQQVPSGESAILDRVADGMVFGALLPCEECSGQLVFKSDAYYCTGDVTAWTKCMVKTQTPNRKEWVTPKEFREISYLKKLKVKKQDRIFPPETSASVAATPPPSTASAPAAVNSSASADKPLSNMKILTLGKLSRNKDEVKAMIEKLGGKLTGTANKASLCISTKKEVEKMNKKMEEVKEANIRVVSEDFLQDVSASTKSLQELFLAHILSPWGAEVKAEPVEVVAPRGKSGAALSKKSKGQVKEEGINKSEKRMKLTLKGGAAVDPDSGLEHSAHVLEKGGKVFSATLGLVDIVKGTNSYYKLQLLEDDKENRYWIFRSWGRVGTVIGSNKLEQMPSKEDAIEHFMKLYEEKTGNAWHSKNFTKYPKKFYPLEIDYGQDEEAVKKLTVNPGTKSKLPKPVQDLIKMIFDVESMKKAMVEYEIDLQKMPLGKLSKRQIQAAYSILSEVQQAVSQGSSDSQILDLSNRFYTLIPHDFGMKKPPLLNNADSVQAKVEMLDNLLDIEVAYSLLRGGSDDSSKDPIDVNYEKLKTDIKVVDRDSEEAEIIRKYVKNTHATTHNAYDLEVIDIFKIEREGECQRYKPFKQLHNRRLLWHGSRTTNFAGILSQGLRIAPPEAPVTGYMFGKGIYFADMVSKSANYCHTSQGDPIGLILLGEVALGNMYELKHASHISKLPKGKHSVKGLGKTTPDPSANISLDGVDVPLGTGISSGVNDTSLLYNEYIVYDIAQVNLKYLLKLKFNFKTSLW

Kd: 165 nM
B1: full-length MGMT, purified recombinant (natural protein, UniProt P16455 1-207, looked up)
chain: MDKDCEMKRTTLDSPLGKLELSGCEQGLHEIKLLGKGTSAADAVEVPAPAAVLGGPEPLMQCTAWLNAYFHQPEAIEEFPVPALHHPVFQQESFTRQVLWKLLKVVKFGEVISYQQLAALAGNPKAARAVGGAMRGNPVPILIPCHRVVCSSGAVGNYSGGLAVKEWLLAHEGHRLGKPGLGGSSGLAGAWLKGAGATSGSPPAGRN
notes: MGMT, full length; also called purified MGMT; source: purified recombinant
